Assay results as given in article PMC3184163, “The Amino-Terminus of Nitric Oxide Sensitive Guanylyl Cyclase α1 Does Not Affect Dimerization but Influences Subcellular Localization” (PLoS ONE, 2011).

Key:
[1] = biological target: T1, nitric oxide sensitive guanylyl cyclase β1-subunit with carboxy-terminal Strep Tag II (UniProt P20595 1-619); test: pull-down; co-purification: α1 variant expressed with carboxy-terminally Strep Tag II tagged β1 in Sf-9; cytosolic fraction applied to Strep-Tactin Superflow resin; buffer W 100 mM Tris-HCl, 1 M NaCl, 1 mM EDTA, 1 mM benzamidine, 10 mM DTT, pH 8.0; eluted with 2.5 mM D-desthiobiotin; on ice or at 4°C; SDS-PAGE, Coomassie staining, densitometry; cells also cultured without supplement, with hemin (4 mg/l), or with …; conditions: partners not purified
T1 construct: β1-subunit of nitric oxide sensitive guanylyl cyclase; PvuI/StuI fragment of the conjoined construct β1α1-Strep [27] in pFastBac1; predicted 72.2 kDa with tag; also called Strep tagged β1-subunit; source: Sf-9, recombinant baculovirus, cytosolic fraction; purified on Strep-Tactin Superflow; not shown: Strep Tag II, C-terminal, kept
T1 sequence (looked up): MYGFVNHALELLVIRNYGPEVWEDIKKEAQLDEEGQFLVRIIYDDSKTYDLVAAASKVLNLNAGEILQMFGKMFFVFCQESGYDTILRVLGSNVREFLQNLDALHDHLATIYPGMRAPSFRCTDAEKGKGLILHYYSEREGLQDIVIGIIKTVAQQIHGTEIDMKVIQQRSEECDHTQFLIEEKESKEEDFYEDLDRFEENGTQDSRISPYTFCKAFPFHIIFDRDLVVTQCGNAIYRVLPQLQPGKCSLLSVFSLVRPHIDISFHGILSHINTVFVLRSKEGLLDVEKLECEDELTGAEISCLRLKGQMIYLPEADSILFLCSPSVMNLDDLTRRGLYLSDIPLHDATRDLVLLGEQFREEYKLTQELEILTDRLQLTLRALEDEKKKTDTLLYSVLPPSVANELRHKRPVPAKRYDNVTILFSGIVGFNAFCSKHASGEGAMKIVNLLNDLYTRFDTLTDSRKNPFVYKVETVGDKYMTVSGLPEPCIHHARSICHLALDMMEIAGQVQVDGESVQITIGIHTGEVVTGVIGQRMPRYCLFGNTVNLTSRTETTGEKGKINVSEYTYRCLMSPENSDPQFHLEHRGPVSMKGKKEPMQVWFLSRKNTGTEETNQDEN

[2] = biological target: T2, nitric oxide sensitive guanylyl cyclase β1-subunit with carboxy-terminal Strep Tag II, P20595; test: pull-down; co-purification: α1 variant expressed with carboxy-terminally Strep Tag II tagged β1 in Sf-9; cytosolic fraction applied to Strep-Tactin Superflow resin; buffer W 100 mM Tris-HCl, 1 M NaCl, 1 mM EDTA, 1 mM benzamidine, 10 mM DTT, pH 8.0; eluted with 2.5 mM D-desthiobiotin; on ice or at …
T2 chain: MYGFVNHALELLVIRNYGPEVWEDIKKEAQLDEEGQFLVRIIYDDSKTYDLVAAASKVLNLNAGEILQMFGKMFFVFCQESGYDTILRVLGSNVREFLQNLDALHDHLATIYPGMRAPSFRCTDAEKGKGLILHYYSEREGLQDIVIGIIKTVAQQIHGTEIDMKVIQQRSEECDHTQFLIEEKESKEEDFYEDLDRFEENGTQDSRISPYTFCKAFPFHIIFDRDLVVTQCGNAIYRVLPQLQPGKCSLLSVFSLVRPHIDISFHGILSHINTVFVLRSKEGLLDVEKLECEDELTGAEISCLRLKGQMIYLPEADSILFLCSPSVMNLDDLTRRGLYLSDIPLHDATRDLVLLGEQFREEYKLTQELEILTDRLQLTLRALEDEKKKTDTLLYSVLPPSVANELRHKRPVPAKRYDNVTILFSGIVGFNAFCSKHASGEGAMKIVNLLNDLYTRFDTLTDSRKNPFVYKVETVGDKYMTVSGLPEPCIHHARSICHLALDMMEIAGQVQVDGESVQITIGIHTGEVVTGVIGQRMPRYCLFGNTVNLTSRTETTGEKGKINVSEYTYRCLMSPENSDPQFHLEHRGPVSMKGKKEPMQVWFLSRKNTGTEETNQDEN

Row | Binder | ratio of band intensities of the α1 variant to β1 [1] | relative heterodimerization by densitometry (% of α1WT) [2]
1 | nitric oxide sensitive guanylyl cyclase α1-subunit, wild type (human) (natural protein, UniProt Q02108-1 1-690, looked up, predicted 77.6 kDa; also called α1WT; α1 full-length; source: Sf-9, recombinant baculovirus, cytosolic fraction; co-purified with β1-S on Strep-Tactin) MFCTKLKDLKITGECPFSLLAPGQVPNESSEEAAGSSESCKATVPICQDIPEKNIQESLPQRKTSRSRVYLHTLAESICKLIFPEFERLNVALQRTLAKHKIKESRKSLEREDFEKTIAEQAVAAGVPVEVIKESLGEEVFKICYEEDENILGVVGGTLKDFLNSFSTLLKQSSHCQEAGKRGRLEDASILCLDKEDDFLHVYYFFPKRTTSLILPGIIKAAAHVLYETEVEVSLMPPCFHNDCSEFVNQPYLLYSVHMKSTKPSLSPSKPQSSLVIPTSLFCKTFPFHFMFDKDMTILQFGNGIRRLMNRRDFQGKPNFEEYFEILTPKINQTFSGIMTMLNMQFVVRVRRWDNSVKKSSRVMDLKGQMIYIVESSAILFLGSPCVDRLEDFTGRGLYLSDIPIHNALRDVVLIGEQARAQDGLKKRLGKLKATLEQAHQALEEEKKKTVDLLCSIFPCEVAQQLWQGQVVQAKKFSNVTMLFSDIVGFTAICSQCSPLQVITMLNALYTRFDQQCGELDVYKVETIGDAYCVAGGLHKESDTHAVQIALMALKMMELSDEVMSPHGEPIKMRIGLHSGSVFAGVVGVKMPRYCLFGNNVTLANKFESCSVPRKINVSPTTYRLLKDCPGFVFTPRSREELPPNFPSEIPGICHFLDAYQQGTNSKPCFQKKDVEDGNANFLGKASGID | 0.43 | –
2 | C-α1 splice variant of the nitric oxide sensitive guanylyl cyclase α1-subunit (human α1ΔN259) (domain or fragment, UniProt Q02108-1 259-690, looked up, α1-subunit of nitric oxide sensitive guanylyl cyclase, human, amino-terminal deletion α1ΔN259; predicted 48 kDa; The name ΔN259 could also be read as loss of the first 259 residues; also called C-α1-splice form; source: Sf-9, recombinant baculovirus, cytosolic fraction; co-purified with β1-S on Strep-Tactin) MKSTKPSLSPSKPQSSLVIPTSLFCKTFPFHFMFDKDMTILQFGNGIRRLMNRRDFQGKPNFEEYFEILTPKINQTFSGIMTMLNMQFVVRVRRWDNSVKKSSRVMDLKGQMIYIVESSAILFLGSPCVDRLEDFTGRGLYLSDIPIHNALRDVVLIGEQARAQDGLKKRLGKLKATLEQAHQALEEEKKKTVDLLCSIFPCEVAQQLWQGQVVQAKKFSNVTMLFSDIVGFTAICSQCSPLQVITMLNALYTRFDQQCGELDVYKVETIGDAYCVAGGLHKESDTHAVQIALMALKMMELSDEVMSPHGEPIKMRIGLHSGSVFAGVVGVKMPRYCLFGNNVTLANKFESCSVPRKINVSPTTYRLLKDCPGFVFTPRSREELPPNFPSEIPGICHFLDAYQQGTNSKPCFQKKDVEDGNANFLGKASGID | 0.75 | 166.2 % (±12.2 %)
